US11008403 (dated 2021)
“And” between values parts separate entries of the source, which are not always exact repeats. Identical values can stand only once. Like-named read-outs stand apart in the source and are kept apart here.

T1: cyno TfR ECD (cynomolgus)
T1 chain: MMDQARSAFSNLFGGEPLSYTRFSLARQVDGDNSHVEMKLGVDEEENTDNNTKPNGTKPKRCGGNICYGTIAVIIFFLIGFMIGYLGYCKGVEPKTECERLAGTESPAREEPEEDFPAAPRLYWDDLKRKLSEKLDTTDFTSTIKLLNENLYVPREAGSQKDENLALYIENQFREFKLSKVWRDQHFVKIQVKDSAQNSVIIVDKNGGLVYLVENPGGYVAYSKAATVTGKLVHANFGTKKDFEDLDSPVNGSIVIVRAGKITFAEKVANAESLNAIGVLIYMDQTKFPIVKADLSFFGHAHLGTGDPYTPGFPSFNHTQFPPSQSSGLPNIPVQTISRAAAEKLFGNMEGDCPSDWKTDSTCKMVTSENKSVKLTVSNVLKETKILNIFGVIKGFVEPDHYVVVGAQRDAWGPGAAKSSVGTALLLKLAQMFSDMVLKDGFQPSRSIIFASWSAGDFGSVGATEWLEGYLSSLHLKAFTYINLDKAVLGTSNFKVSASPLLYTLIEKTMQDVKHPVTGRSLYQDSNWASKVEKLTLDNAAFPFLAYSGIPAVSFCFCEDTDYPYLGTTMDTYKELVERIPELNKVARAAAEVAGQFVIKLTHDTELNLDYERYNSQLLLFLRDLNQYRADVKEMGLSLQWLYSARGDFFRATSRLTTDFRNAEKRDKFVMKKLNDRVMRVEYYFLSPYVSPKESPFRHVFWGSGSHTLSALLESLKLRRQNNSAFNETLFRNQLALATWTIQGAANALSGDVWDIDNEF


What was measured:
human TfR ECD [1] = biological target: human TfR ECD (human); assay: SPR
cyno TfR ECD [2] = biological target: T1, cyno TfR ECD; assay: SPR
cyno TfR ECD [3] = biological target: T1, cyno TfR ECD; assay: SPR
human TfR ECD [4] = biological target: human TfR ECD (human); assay: SPR; remark: listed apart in the source
human TfR ECD [5] = biological target: human TfR ECD (human); assay: ELISA
cyno TfR ECD [6] = biological target: T1, cyno TfR ECD; assay: ELISA

Sequence of human TfR ECD (human) (chain, as listed by the source): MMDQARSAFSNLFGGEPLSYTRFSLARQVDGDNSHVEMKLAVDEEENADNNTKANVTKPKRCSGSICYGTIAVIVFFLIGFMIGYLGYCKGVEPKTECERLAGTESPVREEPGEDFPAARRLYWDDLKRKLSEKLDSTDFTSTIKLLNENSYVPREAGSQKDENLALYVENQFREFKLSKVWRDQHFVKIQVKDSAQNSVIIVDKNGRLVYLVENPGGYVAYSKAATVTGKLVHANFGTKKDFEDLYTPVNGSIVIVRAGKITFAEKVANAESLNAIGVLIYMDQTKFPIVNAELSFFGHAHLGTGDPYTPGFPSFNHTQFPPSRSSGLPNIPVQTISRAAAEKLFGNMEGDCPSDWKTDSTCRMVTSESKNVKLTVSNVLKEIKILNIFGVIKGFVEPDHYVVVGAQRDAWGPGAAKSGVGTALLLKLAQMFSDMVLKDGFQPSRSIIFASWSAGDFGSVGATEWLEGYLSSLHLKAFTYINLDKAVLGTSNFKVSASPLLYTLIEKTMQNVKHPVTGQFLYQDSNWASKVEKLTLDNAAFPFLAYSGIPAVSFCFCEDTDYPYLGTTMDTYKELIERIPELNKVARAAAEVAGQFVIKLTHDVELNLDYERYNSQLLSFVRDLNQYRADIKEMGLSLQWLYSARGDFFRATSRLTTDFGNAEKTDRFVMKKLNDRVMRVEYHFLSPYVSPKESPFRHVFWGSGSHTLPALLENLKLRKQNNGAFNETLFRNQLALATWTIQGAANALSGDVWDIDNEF

Kd (human TfR ECD [1]) [nM]	Kd (cyno TfR ECD [2])	EC50 (human TfR ECD [5]) [ng/mL]	EC50 (cyno TfR ECD [6]) [ng/mL]	Binder	other results
		0.3	1.1	hu15G11.v5 HC G49A (antibody, V domains shown) VH: EVQLVQSGAEVKKPGASVKVSCKASGYTFTSYWMHWVRQAPGQRLEWIAEINPTNGRTNYIEKFKSRATLTVDKSASTAYMELSSLRSEDTAVYYCARGTRAYHYWGQGTMVTVSS VL: DIQMTQSPSSLSASVGDRVTITCRASDNLYSNLAWYQQKPGKSPKLLVYDATNLADGVPSRFSGSGSGTDYTLTISSLQPEDFATYYCQHFWGTPLTFGQGTKVEIK	
		0.4	0.8	hu15G11.v5 HC T28A (antibody, V domains shown) VH: EVQLVQSGAEVKKPGASVKVSCKASGYAFTSYWMHWVRQAPGQRLEWIGEINPTNGRTNYIEKFKSRATLTVDKSASTAYMELSSLRSEDTAVYYCARGTRAYHYWGQGTMVTVSS VL: DIQMTQSPSSLSASVGDRVTITCRASDNLYSNLAWYQQKPGKSPKLLVYDATNLADGVPSRFSGSGSGTDYTLTISSLQPEDFATYYCQHFWGTPLTFGQGTKVEIK	
		0.4	0.5	hu15G11.v5 LC L54A (antibody, V domains shown) VH: EVQLVQSGAEVKKPGASVKVSCKASGYTFTSYWMHWVRQAPGQRLEWIGEINPTNGRTNYIEKFKSRATLTVDKSASTAYMELSSLRSEDTAVYYCARGTRAYHYWGQGTMVTVSS VL: DIQMTQSPSSLSASVGDRVTITCRASDNLYSNLAWYQQKPGKSPKLLVYDATNAADGVPSRFSGSGSGTDYTLTISSLQPEDFATYYCQHFWGTPLTFGQGTKVEIK	
		0.2	0.6	hu15G11.v5 HC I51A (antibody, V domains shown) VH: EVQLVQSGAEVKKPGASVKVSCKASGYTFTSYWMHWVRQAPGQRLEWIGEANPTNGRTNYIEKFKSRATLTVDKSASTAYMELSSLRSEDTAVYYCARGTRAYHYWGQGTMVTVSS VL: DIQMTQSPSSLSASVGDRVTITCRASDNLYSNLAWYQQKPGKSPKLLVYDATNLADGVPSRFSGSGSGTDYTLTISSLQPEDFATYYCQHFWGTPLTFGQGTKVEIK	
		0.1	0.4	hu15G11.v5 LC R24A (antibody, V domains shown) VH: EVQLVQSGAEVKKPGASVKVSCKASGYTFTSYWMHWVRQAPGQRLEWIGEINPTNGRTNYIEKFKSRATLTVDKSASTAYMELSSLRSEDTAVYYCARGTRAYHYWGQGTMVTVSS VL: DIQMTQSPSSLSASVGDRVTITCAASDNLYSNLAWYQQKPGKSPKLLVYDATNLADGVPSRFSGSGSGTDYTLTISSLQPEDFATYYCQHFWGTPLTFGQGTKVEIK	
		0.2	0.6	hu15G11.v5 LC S26A (antibody, V domains shown) VH: EVQLVQSGAEVKKPGASVKVSCKASGYTFTSYWMHWVRQAPGQRLEWIGEINPTNGRTNYIEKFKSRATLTVDKSASTAYMELSSLRSEDTAVYYCARGTRAYHYWGQGTMVTVSS VL: DIQMTQSPSSLSASVGDRVTITCRAADNLYSNLAWYQQKPGKSPKLLVYDATNLADGVPSRFSGSGSGTDYTLTISSLQPEDFATYYCQHFWGTPLTFGQGTKVEIK	
		0.8	1.8	hu15G11.v5 IgG (antibody, V domains shown) VH: EVQLVQSGAEVKKPGASVKVSCKASGYTFTSYWMHWVRQAPGQRLEWIGEINPTNGRTNYIEKFKSRATLTVDKSASTAYMELSSLRSEDTAVYYCARGTRAYHYWGQGTMVTVSS VL: DIQMTQSPSSLSASVGDRVTITCRASDNLYSNLAWYQQKPGKSPKLLVYDATNLADGVPSRFSGSGSGTDYTLTISSLQPEDFATYYCQHFWGTPLTFGQGTKVEIK	
		0.2	0.8	hu15G11.v5 LC N28A (antibody, V domains shown) VH: EVQLVQSGAEVKKPGASVKVSCKASGYTFTSYWMHWVRQAPGQRLEWIGEINPTNGRTNYIEKFKSRATLTVDKSASTAYMELSSLRSEDTAVYYCARGTRAYHYWGQGTMVTVSS VL: DIQMTQSPSSLSASVGDRVTITCRASDALYSNLAWYQQKPGKSPKLLVYDATNLADGVPSRFSGSGSGTDYTLTISSLQPEDFATYYCQHFWGTPLTFGQGTKVEIK	

More lines, now with the values behind:

Binder	Kd (human TfR ECD [1]) [nM]	Kd (cyno TfR ECD [2])	EC50 (human TfR ECD [5]) [ng/mL]	EC50 (cyno TfR ECD [6]) [ng/mL]	other results
Mu16F6 Fab (antibody, V domains shown) VH: DVQLQESGPGLVKPSQSLSLTCTVTGNSITSEYAWNWIRQFPGNKLEWMGYISYSGTTSYNPSLKSRISITRDTSKNQLFLQLNSVTTEDTATYFCARYGYGNPATRYFDVWGAGTTVTVSS VL: DVQITQSPSYLTASPGETITINCRASKSISKYLAWYQEKPGKTNKLLIYSGSTLQSGIPSRFSGSGSGTDFTLTISNLEPEDFAMYYCQQHNEYPWTFGGGTKLEIK	3.13	26.8 nM			
Mu7A4 Fab (antibody, V domains shown) VH: QVQLQQSGPELVRPGVSVKISCKGSGYTFTDYAMHWVKQSHAKSLEWIGGISTYFGRTNYNQKFKGRATMTVDKSSSTAYMELARLTSEDSALYYCARGLSGNYVMDYWGQGTSVTVSS VL: DIVLTQSPASLAVSLGQRATISCRASESVDSYGNSFMHWYQQKPGQPPKLLIYRASNLESGIPARFSGSGSRTDFTLTINPVEADDVATYYCQQSNEGPPTFGGGTKLEIK	0.19	0.741 nM			
Hu7A4.v15 Fab (antibody, V domains shown) VH: EVQLVQSGAEVKKPGASVKVSCKGSGYTFTDYAMHWVRQAPGQGLEWMGGISTYFGRTNYNQKFKGRVTMTVDTSISTAYMELSRLRSDDTAVYYCARGLSGNYVMDYWGQGTTVTVSS VL: DIVMTQSPDSLAVSLGERATINCRASESVDSYGNSFMHWYQQKPGQPPKLLIYRASNLESGVPDRFSGSGSRTDFTLTISSLQAEDVAVYYCQQSNEAPPTFGQGTKLEIK	0.348	4.28 nM			
Hu7G7.v1 Fab (antibody, V domains shown) VH: EVQLVQSGAEVKKPGASVKVSCKASGYTFTSYWMHWVRQAPGQGLEWIGNIYPGSGSTKYDERFKSRVTITVDTSTSTAYLELSSLRSEDTAVYYCTRGGYDSRAWFAYWGQGTLVTVSS VL: DIVMTQSPDSLAVSLGERATINCRARQSVSTSSYSFMHWYQQPAGQPPKLLIKYASIQESGVPDRFSGSGSGTDFTLTISSLQAEDVAVYYCQHTWEIPFTFGQGTKVEIK	45.8	188 nM			
Hu15G11.HC34A Fab (antibody, V domains shown) VH: EVQLVQSGAEVKKPGASVKVSCKASGYTFTSYWAHWVRQAPGQRLEWIGEINPTNGRTNYIEKFKSRATLTVDKSASTAYMELSSLRSEDTAVYYCARGTRAYHYWGQGTMVTVSS VL: DIQMTQSPSSLSASVGDRVTITCRASDNLYSNLAWYQQKPGKSPKLLVYDATNLADGVPSRFSGSGSGTDYTLTISSLQPEDFATYYCQHFWGTPLTFGQGTKVEIK					Kd (cyno TfR ECD [3]): 32.6 nM; Kd (human TfR ECD [4]): 7.14 nM
hu15G11.v5 HC E50A (antibody, V domains shown) VH: EVQLVQSGAEVKKPGASVKVSCKASGYTFTSYWMHWVRQAPGQRLEWIGAINPTNGRTNYIEKFKSRATLTVDKSASTAYMELSSLRSEDTAVYYCARGTRAYHYWGQGTMVTVSS VL: DIQMTQSPSSLSASVGDRVTITCRASDNLYSNLAWYQQKPGKSPKLLVYDATNLADGVPSRFSGSGSGTDYTLTISSLQPEDFATYYCQHFWGTPLTFGQGTKVEIK			20.6	410	
Hu15G11.HC32A Fab (antibody, V domains shown) VH: EVQLVQSGAEVKKPGASVKVSCKASGYTFTSAWMHWVRQAPGQRLEWIGEINPTNGRTNYIEKFKSRATLTVDKSASTAYMELSSLRSEDTAVYYCARGTRAYHYWGQGTMVTVSS VL: DIQMTQSPSSLSASVGDRVTITCRASDNLYSNLAWYQQKPGKSPKLLVYDATNLADGVPSRFSGSGSGTDYTLTISSLQPEDFATYYCQHFWGTPLTFGQGTKVEIK					Kd (human TfR ECD [4]): 7.47 nM
hu15G11.v5 HC G26A (antibody, V domains shown) VH: EVQLVQSGAEVKKPGASVKVSCKASAYTFTSYWMHWVRQAPGQRLEWIGEINPTNGRTNYIEKFKSRATLTVDKSASTAYMELSSLRSEDTAVYYCARGTRAYHYWGQGTMVTVSS VL: DIQMTQSPSSLSASVGDRVTITCRASDNLYSNLAWYQQKPGKSPKLLVYDATNLADGVPSRFSGSGSGTDYTLTISSLQPEDFATYYCQHFWGTPLTFGQGTKVEIK			1.1	6.1	
Hu16F6.v4 Fab (antibody, V domains shown) VH: EVQLVESGPGLVKPSETLSLTCTVSGNSITSEYAWNWIRQPPGKGLEWIGYISYSGTTSYNPSLKSRVTISRDTSKNQLSLKLSSVTAADTAVYYCARYGYGNPATRYFDVWGQGTLVTVSS VL: DIQMTQSPSSLSASVGDRVTITCRASKSISKYLAWYQQKPGKTNKLLLYSGSTLQSGVPSRFSGSGSGTDYTLTISSLQPEDFATYYCQQHNEYPWTFGQGTKVEIK	1.29	24.7 nM			
Mu15G11 Fab (antibody, V domains shown) VH: QVQLQQPGAELVKPGASVKLSCKASGYTFTSYWMHWVKQRPGQGLEWIGEINPTNGRTNYIEKFKSKATLTVDKSSSTAYMQLSSLTSEDSAVYYCARGTRAYHYWGQGTSVTVSS VL: DIQMTQSPASLSVSVGETVTITCRASDNLYSNLAWYQQKQGKSPQLLVYDATNLADGVPSRFSGSGSGTQYSLKINSLQSEDFGTYYCQHFWGTPLTFGAGTKLELK	3.37	5.81 nM and 7.57 nM			
